T1: human B7H4 expressed on CHO cells (human, UniProt Q7Z7D3 25-282)
T1 construct: whole, on cells; also called VCTN1
T1 sequence (looked up): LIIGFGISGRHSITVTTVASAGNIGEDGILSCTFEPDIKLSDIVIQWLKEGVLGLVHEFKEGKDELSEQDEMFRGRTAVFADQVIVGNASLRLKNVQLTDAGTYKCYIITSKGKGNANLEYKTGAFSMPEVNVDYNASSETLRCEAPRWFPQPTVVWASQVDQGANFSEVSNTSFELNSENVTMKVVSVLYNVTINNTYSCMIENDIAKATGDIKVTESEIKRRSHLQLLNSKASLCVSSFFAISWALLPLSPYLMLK


Experiments:
[1] = target: T1, human B7H4 expressed on CHO cells; test: FACS, CHO cells
[2] = target: T2, human CD40 expressed on CHO cells (human, UniProt P25942 21-277); test: FACS, CHO cells
T2 construct: whole, on cells; also used for the reporter cells over-expressing human CD40; also called cellular CD40; CHO-CD40 cells

[3] = target: T3, Human CD40 ECD protein (mouse IgG2a Fc tag) (human, UniProt P25942 21-193); test: bridging ELISA, coated B7H4, soluble CD40 ECD-mFc
T3 construct: extracellular domain; also called Human CD40-msFc; human recombinant CD40; not shown: mouse IgG2a Fc tag
Protocol: Anti-B7H4/CD40 bi-specific antibodies were analyzed by ELISA for their simultaneous binding to recombinant human B7H4 and human CD40. Briefly, human B7H4 protein was diluted and coated onto an ELISA plate with a volume of […] by incubation at 4° C. overnight. The next day, the plate was blocked by PBST-BSA buffer, then serially diluted samples of anti-B7H4/CD40 bi-specific antibodies were pipetted into appropriate wells at 50 μL/well, and the plate was incubated for 1 h followed by Washing. Human CD40 ECD protein (mouse IgG2a Fc tag) was added into the plate at 50 μL/well. After 1-hour incubation at room temperature, HRP-conjugated anti-mouse IgG (H+L) antibody was added into the plate at 100 μL/well. The plate was incubated for 1 hour at room temperature followed by washing. TMB substrate solution was added at 100 μL/well and the color development was stopped by adding 100 uL/well Stop Solution (2N H2SO4). Absorbance at 450 nm and 620 nm was read by Tecan F200 Pro plate reader. GraphPad 7.0, “[Agonist] vs. response—Variable slope (four parameters)” was used to plot the binding data and calculate binding EC50 values.

T3 sequence (P25942 21-193): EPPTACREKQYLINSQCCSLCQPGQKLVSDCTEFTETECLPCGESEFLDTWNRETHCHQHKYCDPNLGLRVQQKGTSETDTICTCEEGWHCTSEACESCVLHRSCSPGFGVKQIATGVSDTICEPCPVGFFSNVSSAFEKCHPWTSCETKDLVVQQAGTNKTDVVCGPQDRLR
T2 sequence (P25942 21-277): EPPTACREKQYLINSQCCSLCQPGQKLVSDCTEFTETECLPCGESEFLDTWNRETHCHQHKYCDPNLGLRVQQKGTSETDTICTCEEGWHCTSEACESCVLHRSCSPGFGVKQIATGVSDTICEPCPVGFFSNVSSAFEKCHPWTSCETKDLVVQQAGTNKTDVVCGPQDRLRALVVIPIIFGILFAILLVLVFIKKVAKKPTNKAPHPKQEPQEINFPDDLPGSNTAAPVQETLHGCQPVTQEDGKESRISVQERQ

Row | binding result [1] | binding result [2] | binding result [3] | Binder
1 | binds | binds | binds | Ly487 (bispecific antibody, human IgG1, kappa, Ly366 HC (IgG1 mutated Fc)-TM740 scFv VH-VL + Ly366 LC) heavy: EVQLVESGGGLVKPGGSLKLSCAASGFTFSDSGMHWVRQAPEKGLEWITYINSGSSTIYYADSVKGRFTISRDNAKNTLFLQMTSLRSEDTAMYYCARGRGYAMDYWGQGTSVTVSSASTKGPSVFPLAPSSKSTSGGTAALGCLVKDYFPEPVTVSWNSGALTSGVHTFPAVLQSSGLYSLSSVVTVPSSSLGTQTYICNVNHKPSNTKVDKKVEPKSCDKTHTCPPCPAPELLGPSVFLFPPKPKDTLMISRTPEVTCVVVDVSHEDPEVKFNWYVDGVEVHNAKTKPREEQYNSTYRVVSVLTVLHQDWLNGKEYKCKVSNKALPAPIEKTISKAKGQPREPQVYTLPPSREEMTKNQVSLTCLVKGFYPSDIAVEWESNGQPENNYKTTPPVLDSDGSFFLYSKLTVDKSRWQQGNVFSCSVMHEALHNHYTQKSLSLSPGGGGGSGGGGSGGGGSGGGGSQVQLVESGGGLVQPGGSLKLSCATSGFNFNDYFMNWVRQASGKGLEWVGQIRNKNYNYATYYTESLEGRVTISRDDSKNTAYLQMNSLKTEDTAVYYCTSYYYDGFADYFDYWGQGTTVTVSSGGGGSGGGGSGGGGSGGGGSDIQMTQSPSSLSASVGDRVTITCKASQNIYIYLNWYQQKPGKAPKLLIYNTNNLQTGVPSRFSGSGSGTDFTLTISSLQPEDFATYYCLQHSSRRTFGGGTKVEIK light: EIVLTQSPTTMAASPGEKITIFCSASSSISSDFLHWYQQKPGFSPKLLIYRISNLASGVPARFSGSGSGTSYSLTIGTMEAEDVATYYCQQGSNVPRTFGGGTKLEIKRTVAAPSVFIFPPSDEQLKSGTASVVCLLNNFYPREAKVQWKVDNALQSGNSQESVTEQDSKDSTYSLSSTLTLSKADYEKHKVYACEVTHQGLSSPVTKSFNRGEC
2 | binds | binds | binds | Ly475 (bispecific antibody, human IgG1, kappa, Ly361 HC (IgG1 mutated Fc)-TM740 scFv VH-VL + Ly361 LC) heavy: EVQLVESGGDLVKPGGSLKLSCAASGFTFSSYGMSWVRQTPDKRLEWVAAISTGGSYTYYPDSVKGRFTISRDTATNTLYLQMSTLKSEDTAMYYCTRRGATGSWFAYWGQGTLVTVSAASTKGPSVFPLAPSSKSTSGGTAALGCLVKDYFPEPVTVSWNSGALTSGVHTFPAVLQSSGLYSLSSVVTVPSSSLGTQTYICNVNHKPSNTKVDKKVEPKSCDKTHTCPPCPAPELLGPSVFLFPPKPKDTLMISRTPEVTCVVVDVSHEDPEVKFNWYVDGVEVHNAKTKPREEQYNSTYRVVSVLTVLHQDWLNGKEYKCKVSNKALPAPIEKTISKAKGQPREPQVYTLPPSREEMTKNQVSLTCLVKGFYPSDIAVEWESNGQPENNYKTTPPVLDSDGSFFLYSKLTVDKSRWQQGNVFSCSVMHEALHNHYTQKSLSLSPGGGGGSGGGGSGGGGSGGGGSQVQLVESGGGLVQPGGSLKLSCATSGFNFNDYFMNWVRQASGKGLEWVGQIRNKNYNYATYYTESLEGRVTISRDDSKNTAYLQMNSLKTEDTAVYYCTSYYYDGFADYFDYWGQGTTVTVSSGGGGSGGGGSGGGGSGGGGSDIQMTQSPSSLSASVGDRVTITCKASQNIYIYLNWYQQKPGKAPKLLIYNTNNLQTGVPSRFSGSGSGTDFTLTISSLQPEDFATYYCLQHSSRRTFGGGTKVEIK light: DILMTQSPSSMSVSLGDTVSITCHASQGINNNIGWLQRKPGKSFKGLIYHGTNLEDGVPSRFSGSGSGADYSLTISSLESEDFADYYCVQYVQFPRTFGGGTKLEIKRTVAAPSVFIFPPSDEQLKSGTASVVCLLNNFYPREAKVQWKVDNALQSGNSQESVTEQDSKDSTYSLSSTLTLSKADYEKHKVYACEVTHQGLSSPVTKSFNRGEC
3 | binds | binds | binds | Ly483 (bispecific antibody, human IgG1, kappa, Ly361 HC (IgG1 mutated Fc)-Ly253 scFv VH-VL + Ly361 LC) heavy: not shown light: DILMTQSPSSMSVSLGDTVSITCHASQGINNNIGWLQRKPGKSFKGLIYHGTNLEDGVPSRFSGSGSGADYSLTISSLESEDFADYYCVQYVQFPRTFGGGTKLEIKRTVAAPSVFIFPPSDEQLKSGTASVVCLLNNFYPREAKVQWKVDNALQSGNSQESVTEQDSKDSTYSLSSTLTLSKADYEKHKVYACEVTHQGLSSPVTKSFNRGEC
4 | binds | binds | binds | Ly482 (bispecific antibody, human IgG1, kappa, Ly361 HC (IgG1 mutated Fc)-Ly253 scFv VL-VH + Ly361 LC) heavy: not shown light: DILMTQSPSSMSVSLGDTVSITCHASQGINNNIGWLQRKPGKSFKGLIYHGTNLEDGVPSRFSGSGSGADYSLTISSLESEDFADYYCVQYVQFPRTFGGGTKLEIKRTVAAPSVFIFPPSDEQLKSGTASVVCLLNNFYPREAKVQWKVDNALQSGNSQESVTEQDSKDSTYSLSSTLTLSKADYEKHKVYACEVTHQGLSSPVTKSFNRGEC
5 | binds | binds | binds | Ly478 (bispecific antibody, human IgG1, kappa, Ly361 HC (IgG1 mutated Fc)-TM559 (printed TM599) scFv VL-VH + Ly361 LC) heavy: EVQLVESGGDLVKPGGSLKLSCAASGFTFSSYGMSWVRQTPDKRLEWVAAISTGGSYTYYPDSVKGRFTISRDTATNTLYLQMSTLKSEDTAMYYCTRRGATGSWFAYWGQGTLVTVSAASTKGPSVFPLAPSSKSTSGGTAALGCLVKDYFPEPVTVSWNSGALTSGVHTFPAVLQSSGLYSLSSVVTVPSSSLGTQTYICNVNHKPSNTKVDKKVEPKSCDKTHTCPPCPAPELLGPSVFLFPPKPKDTLMISRTPEVTCVVVDVSHEDPEVKFNWYVDGVEVHNAKTKPREEQYNSTYRVVSVLTVLHQDWLNGKEYKCKVSNKALPAPIEKTISKAKGQPREPQVYTLPPSREEMTKNQVSLTCLVKGFYPSDIAVEWESNGQPENNYKTTPPVLDSDGSFFLYSKLTVDKSRWQQGNVFSCSVMHEALHNHYTQKSLSLSPGGGGGSGGGGSGGGGSGGGGSDIQMTQSPSSLSASVGDRVTITCLASEDISNDLAWYQQKPGKAPKLLIYFVDRLLDGVPSRFSGSGSGTDFTLTISSLQPEDFATYYCQQSYKYPPTFGQGTKLEIKGGGGSGGGGSGGGGSGGGGSEVQLVESGGGLVQPGGSLRLSCAASGFTFTNYGLHWVRQAPGKGLEWVSSISPSGGVTYYRDSVKGRFTISRDNSKNTLYLQMNSLRAEDTAVYYCAKPFLGWGGANWIAHWGQGTLVTVSS light: DILMTQSPSSMSVSLGDTVSITCHASQGINNNIGWLQRKPGKSFKGLIYHGTNLEDGVPSRFSGSGSGADYSLTISSLESEDFADYYCVQYVQFPRTFGGGTKLEIKRTVAAPSVFIFPPSDEQLKSGTASVVCLLNNFYPREAKVQWKVDNALQSGNSQESVTEQDSKDSTYSLSSTLTLSKADYEKHKVYACEVTHQGLSSPVTKSFNRGEC
6 | binds | binds | binds | Ly479 (bispecific antibody, human IgG1, kappa, Ly361 HC-TM559 scFv VH-VL + Ly361 LC) heavy: EVQLVESGGDLVKPGGSLKLSCAASGFTFSSYGMSWVRQTPDKRLEWVAAISTGGSYTYYPDSVKGRFTISRDTATNTLYLQMSTLKSEDTAMYYCTRRGATGSWFAYWGQGTLVTVSAASTKGPSVFPLAPSSKSTSGGTAALGCLVKDYFPEPVTVSWNSGALTSGVHTFPAVLQSSGLYSLSSVVTVPSSSLGTQTYICNVNHKPSNTKVDKKVEPKSCDKTHTCPPCPAPELLGPSVFLFPPKPKDTLMISRTPEVTCVVVDVSHEDPEVKFNWYVDGVEVHNAKTKPREEQYNSTYRVVSVLTVLHQDWLNGKEYKCKVSNKALPAPIEKTISKAKGQPREPQVYTLPPSREEMTKNQVSLTCLVKGFYPSDIAVEWESNGQPENNYKTTPPVLDSDGSFFLYSKLTVDKSRWQQGNVFSCSVMHEALHNHYTQKSLSLSPGGGGGSGGGGSGGGGSGGGGSEVQLVESGGGLVQPGGSLRLSCAASGFTFTNYGLHWVRQAPGKGLEWVSSISPSGGVTYYRDSVKGRFTISRDNSKNTLYLQMNSLRAEDTAVYYCAKPFLGWGGANWIAHWGQGTLVTVSSGGGGSGGGGSGGGGSGGGGSDIQMTQSPSSLSASVGDRVTITCLASEDISNDLAWYQQKPGKAPKLLIYFVDRLLDGVPSRFSGSGSGTDFTLTISSLQPEDFATYYCQQSYKYPPTFGQGTKLEIK light: DILMTQSPSSMSVSLGDTVSITCHASQGINNNIGWLQRKPGKSFKGLIYHGTNLEDGVPSRFSGSGSGADYSLTISSLESEDFADYYCVQYVQFPRTFGGGTKLEIKRTVAAPSVFIFPPSDEQLKSGTASVVCLLNNFYPREAKVQWKVDNALQSGNSQESVTEQDSKDSTYSLSSTLTLSKADYEKHKVYACEVTHQGLSSPVTKSFNRGEC
